Target: the molecule itself
Test: non-reducing SDS-PAGE and immunoblot after NEM alkylation; lysis in alkylation buffer with 100 mM N-ethylmaleimide and 10 ug/mL catalase; oxidized dimers against reduced monomers; with or without beta-mercaptoethanol in Laemmli buffer

Protein	stoichiometry N
Peroxiredoxin 3, endogenous human (natural protein, UniProt P30048 62-256, looked up, Peroxiredoxin 3, mitochondrial, human; also called Prdx3; PRDX3; source: endogenous: A549 cells (BioID); human lymphoblast lysate fractions (co-IP); human dermal fibroblast lysate (redox blot)) APAVTQHAPYFKGTAVVNGEFKDLSLDDFKGKYLVLFFYPLDFTFVCPTEIVAFSDKANEFHDVNCEVVAVSVDSHFSHLAWINTPRKNGGLGHMNIALLSDLTKQISRDYGVLLEGSGLALRGLFIIDPNGVIKHLSVNDLPVGRSVEETLRLVKAFQYVETHGEVCPANWTPDSPTIKPSPAASKEYFQKVNQ	2
Peroxiredoxin 3, endogenous mouse (natural protein, UniProt P20108 63-257, looked up, Peroxiredoxin 3, mitochondrial, mouse; also called Prdx3; source: endogenous, mouse cerebellum and heart lysates) TPAVTQHAPYFKGTAVVNGEFKELSLDDFKGKYLVLFFYPLDFTFVCPTEIVAFSDKANEFHDVNCEVVAVSVDSHFSHLAWINTPRKNGGLGHMNITLLSDITKQISRDYGVLLESAGIALRGLFIIDPNGVVKHLSVNDLPVGRSVEETLRLVKAFQFVETHGEVCPANWTPESPTIKPSPTASKEYFEKVHQ	2

Source: publication PMC11092868, “Mapping Novel Frataxin Mitochondrial Networks Through Protein- Protein Interactions” (Research Square, 2024)
